The data set is described as follows: label from the status in PepcDB records.
Turning to “PDISVAQPASALRYHLRPPRRNDGAAIHQLVSECPPLDLNSLYAYLLLCEHHAHTCVVAESPGGRIDGFVSAYLLPTRPDVLFVWQVAVHSRARGHRLGRAMLGHILERQECRHVRHLETTVGPDNQASRRTFAGLAGERGAHVSEQPFFDRQAFGGADHDDEMLLRIGPFTH”, the protein production result is “not failed”.

For “PEKPAKTQKTSLDEALQWRDSLDKLLQNNYGLASFKSFLKSEFSEENLEFWIACEDYKKIKSPAKMAEKAKQIYEEFIQTEAPKEVNIDHFTKDITMKNLVEPSLSSFDMAQKRIHALMEKDSLPRFVRSEFYQELI”, the protein production entry is given as “not failed”.

Turning to “PFGSTSGSLFGPSSFTAAPTGTTIKFNPPTGTDTMVKAGVSTNISTKHQCITAMKEYESKSLEELRLEDYQANRKGPQNQVGAGTTTGLFGSSPATSSATGLFSSSTTNSGFAYGQNK”, the protein production result is reported as “failed”.

For the sequence “PFYTQGDSLTSEDHLDDTWVTVFGFPQASASYILLQFAQYGNILKHVMSNTGNWMHIRYQSKLQARKALSKDGRIFGESIMIGVKPCIDKNVMENSDRGVLSSPSL”, the protein production result was “not failed”.

On to “PGIERLAEEATASFPEARIAVLSSDMFGTARALKERIEAIAAGEADIVIGTQLVAKGHNFPLLTLVGVIDADLGLQGSDLRAAERTFQLMRQVAGRAGRAEKPGQALLQTYQPE”, for which the protein production result is listed as “failed”.

As for “PGKEAQPAENVEFIYENGTWKLSQSWACTLIKNTVAPEQIPAMCADPAAPAPEGQPAPEQAPAPEAPAPEQAPAPEAPAPQ”, the protein production result is given as “failed”.

Take “PGLSLRTLDMDRLEEEVRTVRDIYNDAWSDNWGFVPMTEGELQQLADELKQIVDPEIVFFVEHEGTPVGFSVALPDVNQALRHVPDGRLFPYGVPSGLTTLFLHMQYGVHECRMPLMGIRKDYQGKGLDSMLVLATIENGPANGYAACEMSWVLDTNDRLKNHVESLGAVVDKEYAMFETPLSQND”: the protein production entry is listed as “failed”.

In the case of “PGSFSQEAAEIFGSDLVPVRSISEIFHKISVTGDYGIVPIENSIEGPVNETLDGLFRHEDIYIVDHVEIPIEIFLASNCDTENIRRIYSHPHAIAEAGDYLERTENIEVIRTSSTSEAAKLASMDEAGAALCSMKAAQHYGLANTVKIESKSRNITRFILIGRERN”, the protein production entry is “not failed”.

“PGSPPGEGAPLAADVYVGNLPRDARVSDLKRALRELGSVPLRLTWQGPRRRAFLHYPDSAAAQQAVSCLQGLRLGTDTLRVALARQQRDK”: the protein production entry was “not failed”.

For “PIDLITVGSLIELQDSQNPFQYWIVSVIENVGGRLRLRYVGLEDTESYDQWLFYLDYRLRPVGWCQENKYRMDPPSEIYPLKMASEWKCTLEKSLIDAAKFPLPMEVFKDHADL”, the protein production result is on record as “not failed”.

Take “PIEGEKVDLRIMSTTDLHTNLVNYDYYQDKESQKIGLAKTAVLIEEAKKENPNTVLVDNGDVIQGTPLGTYKAIVKPVAENEEHPMYQAMNALGYDASTLGNHEFNYGLDYLKKIIATANLPILNANVLDFKTHQPVFKTYDIITKTFKDSTGRAVALNIGITGIVPPQILNWDKANLEGKVIVKDSVKAIEEIVPTMRAKGADVILVLSHSGIGDDRYEEGEENVGYQIASIKGVDAVVTGHSHAEFPSGNGTGFYEKYTGVDGINGKINGTPVTMAGKYGDHLGIIDLGLSYTNGKWQVSESSAKIRKIDMNSTTADERIIALAKEAHDGTINYVRQ”: the protein production entry is “not failed”.

Take “PITDERVYESIGHYGGETVKIVRIEKARDIPLGATVRNEMDSVIISRIVKGGAAEKSGLLHEGDEVLEINGIEIRGKDVNEVFDLLSDMHGTLTFVLIPS”: the protein production entry is “not failed”.

Take “PKATAQMEGRLQEFLTAYAPGARLALADGVLGFIHHQIVELARDCLAKSGENLVTSRYFLEMQEKLERLLQDAHERSDSEEVSFIVQLVRKLLIIISRPAR”: the protein production result is reported as “not failed”.

Turning to “PLGLAPTASTTATLAMGDALAVALLIERGFRPEDFALFHPGGSLGKKLLLTVGDLMHSGDAVPLVGSATPIRDALFVITAKGLGITGVCAEDGALVGVVTDGDLRRSLGKGVDILNQPAGEIMTRNPKRINRSELAAKALQVMESHSITSLFVFDDTADNRPVGVIHLHDLLRA”, the protein production entry is on record as “not failed”.

Turning to “PLKEQKVINTANIKTNSKLDLAEYENGLINIATQQFDTESHVLQLNQYIPEKLIDELVAKVEAPVLTNIIEQDYFGKQNSNELSLSGVMIGLAMSSSVSNEEAMSKGTEVAKQLIEAINKNDKYNKSPITFAIFKQESTSSLKNGTYIASATVQKNDTNLGNWSTIDEKSYSYPSDEFTQAHGEDNTKINNFAKEIKGFSNGDFIPVNAKVSYKKDQMDTLNMNIVIKYNGKTELMALTQLAAQGMLDKLPKDAKVQLQIKSESKIEAVIIKEKNSDKPFV”, the protein production entry was “failed”.

Consider “PLKRSLPPDTAITKTDRVTVKGEEVPYEVTTGTQPVYGDDDTAVASLHYTYYRRSDVDDRSGRPLMISFNGGPGSGSLWMHLGYTSPKHLLISDEGYPVQPYGVEDNNQSIIDVADIVYVNPVNTGFSRVIDDDTDAEQFFGVNADVDYLADWIDTFISRHGRWRSPKYLIGESYGTTRVAGLAGELQNSHWTYLNGVILVSPTGLGMEPAGPSPRSEALKLPYYAATAWYHEQLPDALQSRDLQALLSEVEDYTIEEYIPAVTRGGFVEDARRQAVAQQVARYSGLSEPFVLDHNLAVPADAFWKELLQDEGRTVGRLDSRYEGIDVTNAGSEYDYPAELTAWNHAFTPAINHYLRDDLGFTTDLQYNTFGNVYPWDETENNTGAQLREAMAQNPYLHVMVQSGYYDGATDYFSAKYVMWNLGTRETMRDRLRFEGYRSGHMMYLRSEDLATSNEDIRTFIEESIPDEGTPARYGRNR”, for which the protein production result is reported as “failed”.

Take “PLPEGMQQQFEDTISRDAKQQPTWDRAQAENVRKILESVPPIVVAPEVLELKQKLADVANGKAFLLQGGDCAETFESNTEPHIRANVKTLLQMAVVLTYGASTPVIKMARIAGQYAKPRSSDLDGNGLPNYRGDIVNGVEATPEARRHDPARMIRAYANASAAMNLVRALTSSGTADLYRLSEWNREFVANSPAGARYEALAREIDSGLRFMEACGVSDESLRAADIYCSHEALLVDYERSMLRLATDEEGNEELYDLSAHQLWIGERTRGMDDFHVNFASMISNPIGIKIGPGITPEEAVAYADKLDPNFEPGRLTIVARMGHDKVRSVLPGVIQAVEASGHKVIWQSDPMHGNTFTASNGYKTRHFDKVIDEVQGFFEVHRALGTHPGGIHIEFTGEDVTECLGGAEDITDVDLPGRYESACDPRLNTQQSLELAFLVAEMLRN”: the protein production entry is “failed”.

Regarding “PNARSQPSKTLFVKGLSEDTTEETLKESFDGSVRARIVTDRETGSSKGFGFVDFNSEEDAKAAKEAMEDGEIDGNKVTLDWAKPKGEGG”, the protein production entry was “not failed”.

For the sequence “PRAAGHSEEVLEREASFSLTTIDGEVISLNNVGGDVVILWFMAAWCPSCVYMADLLDRLTEKYREISVIAIDFWTAEALKALGLNKPGYPPPDTPEMFRKFIANYGDPSWIMVMDDGSLVEKFNVRSIDYIVIMDKSSNVLYAGTTPSLGELESVIKSVQGG”, the protein production result was “not failed”.

Regarding “PRPDKCPCEVYHLMKNCWETEASFRPTFENLIPILKTVHEKYQGQAPSVFSVC”, the protein production entry is “failed”.

Take “PTWMVVNPVAGGGKWLQYEQHVIRELTKKYRLSIRQTDETTSAESLALQAKQSGVNQVIVSGGDGTVTEVASQLVGTDIQLGIIPLGTANALCHVLYGIGMKLSPVEKACEAILAGHCQRIDTAECNQ”: the protein production result was “failed”.

Consider “PVEEVMPVLEEKERSASYKPVFVTEITDDLHFYVQDVETGTQFQKLMENMRNDIASHPPVEGSYAPRRGEFCIAKFVDGEWYRARVEKVESPAKIHVFYIDYGNREVLPSTRLGTLSPAFSTRVLPAQATEYAFAFIQVPQDDDARTDAVDSVVRDIQNTQCLLNVEHLSAGCPHVTLQFADSKGDVGLGLVKEGLVMVEVRKEKQFQKVITEYLNAQESAKSARLNLWRYGDFRADDADEFGYSR”, for which the protein production entry was “not failed”.

For PVGWQCPGCTFINKPTRPGCEMCCRARPEAYQVPASYQP, the protein production entry is listed as “not failed”.

Take “PVNQVQSSVSWPQNGSLNSVSAPLMSYTPISFDAKIPVASVDKLRKDQDLILGTLPANSEDAGARGLFVRANDDGLQITSHGELVLDLSKRELAQLPADATIAISATEDETTAGIEGDDSTTETVERDVRPIIMGIYTELESNAAADLLNAGLNAHVEINSRFTSSPTLAKYAS”: the protein production result is recorded as “not failed”.

On to “PWQHFIIGSLFGWVHKETKLRRFKEALIFMGRKNGKTTTISGVANYAVSQDGENGAEIHLLANVMKQARILFDESKAMIKASPKLDKNFRTLRDEIHYDATISKIMPQASDSDKLDGLNTHMGIFDEIHEFKDYKLISVIKNSRAARLQPLLIYITTAGYQLDGPLVDMVEAGRDTLDQIIEDERTFYYLASLDDDDDINDSSNWIKANPNLGVSINLDEMKEEWEKAKRTPAERGDFITKRFNIFANNDEMSFIDYPTLQKNNEIVSLEELEGRPCTIGYDLSETEDFTAACATFALDNGKVAVLSHSWIPKHKVEYSNEKIPYREWEEDGLLTVQDKPYIDYQDVLNWIIKMNEHYVVEKITYDRANAFKLNQELKNYGFETEETRQGALTLSPALKDLKEMFLDGKIIFNNNPLMKWYINNVQLKLDRNGNWLPSKQSRYRKIDGFAAFLNTYTDIMNKVVSDKGEGNIEFISIKDIMR”, for which the protein production entry is reported as “failed”.

“PWQPPADLSGLSIEEVSKSLRFIGLSEDVISFFVTEKIDGNLLVQLTEEILSEDFKLSKLQVKKIMQFING”: the protein production entry was “not failed”.

On to “PYNKNGFKVGMKLEGVDPEHQSVYCVLTVAEVCGYRIKLHFDGYSDCYDFWVNADALDIHPVGWCEKTGHKLHPPKGYKEEEFNWQTYLKTCKAQAAPKSLFENQNITVIPSGF”, for which the protein production result was “not failed”.

For the sequence “QADAGPDKELTLPVDSTTLDGSKSSDDQKIISYLWEKTQGPDGVQLENANSSVATVTGLQVGTYVFTLTVKDERNLQSQSSVNVIVKEE”, the protein production entry is on record as “not failed”.

Take “QALDVLDDAGRKVLFTEARTANTFAEVAVADDELAMIWELARWSPSAANGQPLRVLFVRTPEGKERLGRHLDEGNRAKTLSAPAVAILAYDVDFHEQMPTVFPARGEMLRAAFADQTEKRESLAAYNSALQTGVFLLAVRAAGLAAGPMAGFDRAGVDEEFFAGTSWRSHLVVNIGHPGADPWFPRLPRVPVEDAVAYA”: the protein production result is given as “failed”.

Regarding “QALPEKALDSFIVTGLSKRGWTTWLTAIVDSRVVAIAPFVIDLLDTRAALEHMYQSYGGNWPIAFTPYYLDEVDKKLDTASFAKLMQIIDPLQYMGTEYQSRLSIPKYIINASGDDFYVPDNTDFYYDKLPGEKALRVAPNASHSGIKAFSEQSLISFVNR”, the protein production entry is “failed”.

As to “QCPASVEKAIISSFSPVLNEPMLDYIDKAQVYLAAREKRKIGSLLNDTVGKHLPRLFKLYNYKHLIGLAEHEYGQIDFHISQIRTLSASNYVERFSSIKIPVLFINGEKDEYTTVEDARMFSNYIAKSSFNVVPDTGHFLDLESKAAWHHSQKTALSFLGT”, the protein production result is on record as “not failed”.

For “QEIASRLPYFCSGCPHNSSTKVPDGSRAYAGIGCHYMVQWMDRNTQGFTHMGGEGANWIGEAPFSKTKHVFQNLGDGTYNHSGVQAIRAALAAGTNITYKILFNDAVAMTGGQENEGDLSAPRIVAELKAMGVKELAVVYDDKEDVDRSQFPSGIPFHERAELMQVQKRFREIAGVSAIVYIQTCAAEKRRRRKRGTFPDPDKRAFINTDICEGCGDCGVQSNCVSIVPKETELGRKRAIDQSSCNKDFSCVKGFCPSFVTVQGAKIRKEATAEIDL”, the protein production result is on record as “failed”.

With “QEIKRYADEHEERYGRFPKTLIFAVQDLANSSSHADQIVDQARDIFGRGDSFVQKITGKVDRPLQRIREFRNRKEPGIAVTVDLLSTGVDVPDIEYIVFLRSMKSRILFEQMIGRGTRKGEH”, the protein production entry is reported as “failed”.

The record behind these values is a protein production outcome set (Wang et al. 2014).
